The record followed here is US20220220200A1 (published 2022).

The target of assay [1] is T1, CD19 antigen (analyte of the Octet affinity assay) (UniProt P15391 20-291).
T1 chain: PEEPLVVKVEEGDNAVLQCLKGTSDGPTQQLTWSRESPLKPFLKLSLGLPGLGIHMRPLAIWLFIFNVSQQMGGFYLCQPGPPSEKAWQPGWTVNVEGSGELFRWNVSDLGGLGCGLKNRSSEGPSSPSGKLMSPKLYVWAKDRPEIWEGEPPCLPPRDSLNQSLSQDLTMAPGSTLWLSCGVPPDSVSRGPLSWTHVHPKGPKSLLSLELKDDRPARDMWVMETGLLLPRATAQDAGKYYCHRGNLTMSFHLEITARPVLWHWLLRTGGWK
As to the kind of experiment: BLI. (In general: BLI is a label-free optical method that tracks binding on a fibre tip over time.)

For the next assay, the target named is FMC63. Nature of the assay: BLI.

B1: #78 anti-CD19 scFv-rFc (Fc fusion)
scFv: QAVLTQPPSVSEAPRQRVTISCSGSSSNIGNNAVSWYQQLPGKAPKLLIYYDDLLPSGVSDRFSGSKSGTSASLAISGLQSEDEADYYCAAWDDSLNGWVFGGGTKVTVLGSRGGGGSGGGGSGGGGSLEEVQLVQSGAEVKKPGESLKISCKGSGYSFTSYWIGWVRQMPGKGLEWMGIIYPGDSDTRYSPSFQGQVTISADKSISTAYLQWSSLKASDTAMYYCARLSYSWSSWYWDFWGQGTLVTVSS
In assay [1], B1 came in with a Kd of 21.9 nM.

B2: #62 anti-CD19 scFv-rFc (Fc fusion)
scFv: QSVVTQPPSVSGAPGQRVTISCTGSSSNIGAGYDVHWYQQLPGTAPKLLIYENTNRPSGVPDRFSGSKSGTSASLAITGLQAEDEADYYCQSYDSSLSGWRVFGGGTKLTVLGSRGGGGSGGGGSGGGGSLEMAEVQLVQSGAEVKKPGESLKISCKGSGYSFTNSWIGWVRQMPGKGLEWMGLIYPDDSDTRYSPSFQGQVTISADSAINTAYLQWSSLKASDTAMYYCARQSTYIYGGYYDTWGQGTLVTVSS
Consider B2, for which, in assay [1], the Kd came to 51.1 nM.

B3: CD19 antigen (receptor)
chain: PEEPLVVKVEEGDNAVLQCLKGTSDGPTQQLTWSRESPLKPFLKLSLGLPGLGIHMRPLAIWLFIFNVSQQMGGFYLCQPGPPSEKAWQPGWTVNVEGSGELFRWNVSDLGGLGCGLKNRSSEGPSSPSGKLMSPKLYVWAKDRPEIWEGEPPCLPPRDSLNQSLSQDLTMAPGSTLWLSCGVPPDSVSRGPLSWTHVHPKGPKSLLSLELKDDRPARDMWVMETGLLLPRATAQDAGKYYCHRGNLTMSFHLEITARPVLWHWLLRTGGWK
In turn, B3 gave a Kd in the assay with FMC63 of 10.7 nM.

The term Kd denotes the equilibrium constant for the complex coming apart. Read a low Kd as a tighter complex.
